# According to the domain aggregation screens of Martell et al. (2025):
# Assay: soluble fraction after stress (log2 fold change); higher = more stays soluble; pooled small domains, quantitative proteomics
# Settings: stress: 50 degC
# In short: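 Custom libraries of small protein domains were pooled and measured in a high-throughput format, with quantitative proteomics as the read-out. Each library was stressed at 50°C. The value is the log2 fold change in the amount of each protein that stays soluble after stress, used as a measure of aggregation propensity; higher values mean more of the protein stays soluble.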
row,Sequence,soluble fraction (log2)
1,HMQSVEELLDAIGDERLLHILLEADRKTLQIVVLKMMGYAPKEIGSHIGMPEQTVYTKLRRLREKIKKI,-1.49
2,HMNLVGGKINSLMTTKNVTIQDLSERSGLTVSQIELLLSGDKVPSLAVLIKIARGLGVRVGTFL,-1.3
3,HMDNLSQMQERILEFIIRSKDQSGYTPSLREIGDEVGLKAVSSVKYQLEQLKDAHYISFDANTARAIRVLI,-1.7
4,HMVSKIEAPLPGIILSVDVKEGDTVKAGDKLMVMEAMKMENAILAETNGVVKSIKVKIQDSVLQGDILAEI,-0.171
5,HMKNVSVKMILSPESLGEIQVDLVFSKGKDLEIMLRPETAEVAKLIQSNSASLREQLSLEHKGPLSLNVS,-0.626
6,HMKEVDSESAFAERGISEVWIPALQKMGILTLEALDAANPNKVFNDLGGMRKKLKIDAAMPTKDEVTAWIQ,0.0238
7,HMIQYRKILELHFKDISQRTISTSVGSSRNTVSDVIKRSEQLGLERLTDNMNNRWLEEFLFPEKQ,-4.17
8,HMDGYTAVDKAVSDQYYTKENQLYFVSMGNFFSLGAKKIEGADISSFQILTTEYARDLQHLYFNGKV,-0.383
9,HMHMNFGEILQTKRKEKGFTQEELAHQLLVSSKTISNWETNKTTPDIDNVIRISQLFDISLNQLLLE,-0.379
10,HMGTLNLSQAYREWGMAEIEANRDYYGPVRFDDIAFQMSPAGQQLQARFVASYADRLHDAIEGEL,-0.304
11,HMEALDPLTAREQEVLEMILSGKSNREIAAELHITENTVKTHAQSIYSKYDVRGRAKLISLLLKGEA,-0.102
12,HMLISKNLLGFTIKNTSGVTFGTLKDIMWLPSNDVYVIDNNGKEYLIPVISEIVKSINYDKGSITIFP,-0.352
13,HMTKLLITNYERNVLINSYLLKNTPELDDIRRLLVHNKHISENDVSTEMARRIKKHKADWLRVT,-2.71
14,HMLPTLSLSVKIYKGEGDIALDLEEMVKAFDQLNFGSYPFSEKGVHGTNIVIRGNDKKHMEEAEDKVRSLT,-0.725
15,HMGGYVTGTIDLTKFGYAFVITEESEDDVFVAARNLNTALHGDQVKVLLYARHKGKRPEGEVVEIISRSRA,-1.11
16,HMRDLTARQQQILALIRQHIADTGFPPTRAEIAAQLGFRSPNAAEEHLKALARKGVIELASGASRGIRLK,-0.16
17,HMSSFFLIDVSQVRIGMYIQLDVGWMRHPFPVNSFRITNQEQLDTLRSLNLAQVRWSPAKSDL,-3.77
18,HMIVIMAKESSPAELEGVKNRIESHPGLRPQVFDGVERIVVGVLGSIPPDLKDEIELLPGVIEVVPISK,-0.0582
19,HMKNLHLVPNVVGMSAKEAKNTLKSFNIKYKPIYGSSNKYDENYIFNQNPRKGKTIKEQEVVTIYISRGAD,-1.07
20,HMQTLQTTSLRVSENQLFILDQQALPQEKRWLAADNVALLVDHIHTLRVRGAPLIGLSASLLLALLAGRLT,-0.0766
21,HMLDFLVSKYESELLADLLWSLGVVAVEEREATGDLVTLRTSLGDDHSFTRELVQEKFPDVIVSTAL,-1.47
22,HMNNYEGIVKSVSNSNVYIQVAGRTIGYTISPHTIIMVNGKNVPASELMPGQHVSYTNKGSKLSYININS,-0.103
23,HMIRDVDYNTFVSMVQEGKVGQVEIQEQNNRILFTDKDERTVYKTAMVPDSDLISRLLEAGVSTS,0.204
24,HMDIPITFEQLPAKAQAFVKQYFKIEEIASVWRDDDIHDQDYKVYFNDGSEIEFYANGDWEEV,-0.62
25,HMSKRIFPNEFQRNSPDAMVMLDKMNLSRINVDPLTKSLTLNGGGSVKTLLNGREVSAVEIAALSP,0.0444

row,Sequence,soluble fraction (log2)
1,HMDIYENIDKELSKQGKSRRKLAIAAGIPPSTFQSMMERKRGLSVENLRKIAEVLNLKWYDLL,-0.195
2,HMTASTLSYSKFNEQVVQNQVRKVTFQGEQVKGELISGQTFTTTVPANDTTLWPMLKAHNVDTAVTAA,0.229
3,HMSLGSQEYSIGFRNGDSTYHYIDKALKELAYEGVIDELSTQWFGSSRAVDFPSQKDALSELGYIA,-0.0308
4,HMASQVERGAVVVTDQRIFFIGVSSEGIEVHGTKIFGMSEKAPLYSHMKGLKKGDSFQFNGLKYVIQDIY,-3.39
5,HMNKITIDQAKEIALNHAKLTAEQVSFIRTESEFDDGIEKYNIEFYYNNQKYDYDINAVNGQIIQYDLEG,-0.0582
6,HMEVTYQETLRVLYNAIDKLPPQTKEIILIGLDGKDNNEIAATLNISVNTVKTLKKNAYKTLRELLVD,-0.157
7,HMTKSEWLRESREHLGLSQTDLRNLLNTALNRSYDKSRISRWENSKENIPAEVVKQIESLIATR,0.123
8,HMALTARDLGLTHRQADVLHLVLQGKPVKLIARDLGLAEGTVKSHVSAVLRALNVTTRTQAIVAAGRLGLM,-1.92
9,HMHITSFTIKQADQIVGTTPVREQAVGAAKARAQQTGTPVSVIAYLDTGEEREVIIHPDGTN,0.324
10,HMPSIGKNILYYRKKRNMTIDELSKKSGVSKSMLSQVEQEKTNPTVVTVWKIARSLDVSINQLLQT,-0.489
11,HMAPGASEVPDLTSLPAREALLRLTKLGLLPEMEGTGRLVRQQPAAGTRVPKGSKVHLVFEPG,0.0613
12,HMGPDGLFAKFREPETGKDLLITQNVFVEQVLIKGVLTRTLTDAEANTYRAPFVNPEKRFPIYVWPNELP,0.142
13,HMPKLSNNHMAVWQAIRSRTAKGEPSTRAVIRDDLKAAGMDTSKHFSRWLTKLIDLGMVVKDGENLSIR,-0.16
14,HMRMTLKNKVEDIVHILRKDKQTSLSAILGDNTDRIQTIVVFLAILELVKQHLIKTDQNANFGDINLFPED,-0.0677
15,HMRRPRGVFNLVPRGFKRFGFITPDGGGEDMFAHLENVRAGHVVEDRNAVEYGIGRGPDGRDQAVDIVPVP,0.049
16,HMDRPLRTKEHFARFAGEQVVVKTSSPIDGRSSFTGTLEGMEGDDVIVEVDGSRIAIGYSLIKRAHVVG,0.117
17,HMEPSQEFSLADMVAYDLTGYPKSAALRAAVGASLGIGYGNAKQFVYRLNHYGISKDDFHRAAQEALDGL,-0.87
18,HMSIELEISADGNNYRVSGLSDGEDVRVYSVSGVQVFSGKAQGGEVVIPADNWNKGIYVISAGGSSVKVL,-0.196
19,HMQVIDNHWRPSRDALDILLRDGISEHFIEDAIPEFILYWRERGTQDSNWNSRFLQHIRLQWARYTNAV,-0.433
20,HMQISDESQLREVVSKILEENEQSVIDYKNGKTRAMGFIIGQVMKATRGKANPQLVNEIVKEMLDE,0.097
21,HMQVTIGADLAEHAARLDVQISDVVKLIKSGVSEGEIKVGLTKLETRLAHPELALVENKLAYLKALIAES,-0.243
22,HMYDDLEPFDANGRLRWSDKELILAFGRHRGVTLQTLELNDPGYLRWLLSGNGPLEQQDRKRLEDILES,-1.27
23,HMGIMSEITHRVLRLLGLLESRSTWTGSDLAERLGVTQRTIRRDVIRLRELGYQVDSVQGLDGGYRMS,-2.48
24,HMTVKRNILQELLKTAFKHPEDFRPSKTFYGETGIGQKRFWALYYGHKAVTQKEYYAVADYLG,-0.0349
25,HMTIEEMAIENINFSTQLLYKAMKYNGVNTVGDLLEKARSKKDLLTMAYIGNKEAEEIIEKLSELGITI,-0.23

row,Sequence,soluble fraction (log2)
1,HMKAQLQHIIGSNIKLARNTQGYTQEGLAERAEISVEHLKQVERGKKMLSVESLVNVANALQVSVDSLV,0.0587
2,HMADQVVGQLGMVTQRIDNLQQTGRVSANGLDWAARSENGQPIPQGMPVEVLRIEGVKLIVRPVN,-0.0238
3,HMSTSAAELLRTARQQAGMSQSAVAELAKTSQSAIAMYEAGNREPSLPVLQRLLAATGHQLSLSVLP,-0.228
4,HMKEDNPIVLINLQAKEGEWVFKGTGLPYVGKYHQHKNGEYMIGIGVLNLNHELKPDEIIIPNPNK,-0.109
5,HMKNYYSILGVTPDSSEAEIKSAYRRLARKFHPDVNPDGASRFKDISEAYETLSDAKKRFQYDTINGF,0.107
6,HMSQLETEEAKRIVLKDLLRLYNNYNIIELEEDEFDRFITYLNMPYDFLQKTSDYDLAVSIKRMYASY,-2.3
7,HMGEDFPYVAYATDSVRLRSKPSSSGDILAVIRQGDAVLITGSDGNYKIVEYEGRKGYVISAFLSQTP,-0.199
8,HMKEKIIKEPYDLFTTDKIGQALEVQALLARQGIKVQRRVDGTKSTLFLENYTQSEKDQALLAVVRSGIV,0.161
9,HMQKLNIEEQIVYDIIFKNKELSANEIQIKSGIKTSILNALLINLEIKQYIKLKFGNFYEIK,0.209
10,HMFLTPLEEARLVIEEIVIPKNIAVDLSPRPSALRKQQHELIAHYQLKSFSVGNERTKRLRILPKVI,-0.114
11,HMSNIIIYPNPTNDGLIHIKGSKFPFNYALYNLSGKLIETGKKNQIQLNDRGVYLLKIQTEGQTYFKKII,0.272
12,HMRFQGKISDWNDEKGYGFVEPNGGGTRAFVHIKSFTDLPRRPINGDIIIYETTTDEKNRVQANNISFTR,0.0181
13,HMEEKNNIIVSYIEDKISELEKASMYVPNENKEKLIMAFKNRNEDIDVIKTRIDTIFNNSVAAYKENME,0.21
14,HMASPTKQLVLEALRASGQPMSSMELSAQIGVSRATAQRYLSTLASAGEVKIQLRYGTTGRPEQEFLAIE,-0.868
15,HMQPSFFEMIRMVESYIKQHFENVGNEFPEIARAIYYGIEEERNIYGTASREDMEELLDEGIPILPVP,-0.926
16,HMAPELRSDAQMRRLWALAKENGLDEVGFRAFISDATGREVESTKSLTATEAHRLIEELEAP,-0.388
17,HMTVLDYNENVLSKVMNAAEINDSDKEAFIAFAKDYNSDDNLYLKKEELETAAGAWNARNVE,0.358
18,HMESYNIVEQVLTKKILSKGNTLAKLSNEFDGLVMLVIRGDEFIIPNGETLLFEKDILVINNGP,-1.72
19,HMVDVEMLTTVSDHIEAKLLQGILENHGIPSYSVDEESGEYMRVYMGYSIFGEKIYVRASDLLAAQGYL,-2.25
20,HMGPLPIDSRYFNNLVPYTGITHVNSVIPEAERHIGLTVVVKTGSTYSEYWYRTGVTNSSLELKT,-0.634
21,HMENTFNENLRRIRKEKKITQEQLAEFVGVSPQAVSKWEMNSFPDASLLPKIAEKLEVSIDELFGLK,0.000882
22,HMYEDNERSLVPIVQNFLKEKKILLSNQSINLIVQRSGGDRINLYNELQKIESFSKNQKKIDIGDIIKLTN,-0.286
23,HMTATWLTYYRIKAGLTQKRLAELAGLNIRQVQKIENGETLAGNTTAKNLLALADALGIDPHKL,-2.05
24,HMNNTVLSSVKSINMFLDANGGDAGQAFRIYNNTNPDSNPTESTYIFKVAEDGNTFVKGYLNLNGTTL,0.014
25,HMNSKKETLLSYLYNHSTWSSRNDLSNFLNVSTRQVTNYINEINKNETIVLSSNKGYKINPKFIGKN,-0.611
